Results reported in the supplement of paper PMC10567573.

B1: FAM50A (parent)
chain: KALEILRKDFSELRSAGVEQLMYI
B2: ZNF511 (parent)
chain: FDALDDYEHHYHTLHGNVCSFCKR

Variants of: B1
Assay: protein stability index of a GFP-peptide fusion (GPS, HEK-293T) (PSI 1-6); higher = more stable
Conditions: c terminus: a fixed tail appended
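Further: lentivirally expressed fusions sorted by FACS into six bins by GFP to DsRed ratio, PSI derived from sequencing read proportions per bin multiplied by bin number.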

Compared with A2R, K8F is lower in protein stability index: 3.76 for the first, 3.19 for the second.

First: K8N
Second: K8D
The protein stability index of the first is higher: 3.03 for the first, 2.16 for the second.

First: K8W
Second: K8G
The protein stability index of the first is lower: 3.31 for the first, 3.52 for the second.

Compared with K8L, K8R is lower in protein stability index: 4.84 for the first, 4.36 for the second.

First: K8I
Second: G17A
The protein stability index of the first is lower: 2.27 for the first, 4.16 for the second.

Compared with G17D, G17H is lower in protein stability index: 1.95 for the first, 1.88 for the second.

Going from G17Y to A16V, the protein stability index falls from 2.95 to 2.07.

Compared with A16E, A16I is lower in protein stability index: 3.17 for the first, 2.76 for the second.

Going from R14N to R14L, the protein stability index rises from 1.95 to 4.57.

Compared with R14S, R14C is higher in protein stability index: 2.28 for the first, 4.11 for the second.

Going from R14K to R14Y, the protein stability index rises from 1.51 to 1.69.

First: R14W
Second: R14F
The protein stability index of the first is lower: 2.68 for the first, 3.71 for the second.

First: R14E
Second: S15H
The protein stability index of the first is lower: 1.68 for the first, 4.69 for the second.

Compared with S15F, S15R is higher in protein stability index: 2.51 for the first, 2.64 for the second.

First: S15D
Second: S15A
The protein stability index of the first is lower: 1.14 for the first, 3.13 for the second.

Compared with E12A, E12L is lower in protein stability index: 2.97 for the first, 2.09 for the second.

First: E12R
Second: E12V
The protein stability index of the first is higher: 4 for the first, 2.75 for the second.

First: E12S
Second: E12N
The protein stability index of the first is higher: 3.99 for the first, 3.69 for the second.

Compared with E12Q, E12T is lower in protein stability index: 3.76 for the first, 3.5 for the second.

First: Y23E
Second: Y23N
The protein stability index of the first is higher: 2.41 for the first, 1.03 for the second.

Compared with Y23K, Y23D is lower in protein stability index: 2.67 for the first, 1.45 for the second.

Going from V18S to V18K, the protein stability index rises from 1.28 to 2.61.

First: V18E
Second: V18N
The protein stability index of the first is higher: 2.9 for the first, 2.35 for the second.

Compared with V18G, V18L is higher in protein stability index: 2.52 for the first, 3.85 for the second.

First: V18F
Second: V18I
The protein stability index of the first is higher: 4.7 for the first, 3.33 for the second.

First: V18Y
Second: L3H
The protein stability index of the first is higher: 2.02 for the first, 1.57 for the second.

First: L3K
Second: L3R
The protein stability index of the first is higher: 2.58 for the first, 2.52 for the second.

Going from L3T to L3D, the protein stability index falls from 1.84 to 1.73.

First: L3C
Second: L3M
The protein stability index of the first is higher: 3.15 for the first, 2.02 for the second.

Going from L3N to L3P, the protein stability index rises from 1.5 to 2.77.

Going from M22D to M22E, the protein stability index falls from 2.22 to 1.27.

Going from M22F to M22Q, the protein stability index rises from 2.34 to 2.37.

Compared with M22W, M22C is higher in protein stability index: 2.3 for the first, 2.56 for the second.

First: M22I
Second: M22T
The protein stability index of the first is lower: 1.97 for the first, 2.22 for the second.

For M22P, the protein stability index was 2.46.

Variants of: B2
Assay: as above
Conditions: c terminus: a fixed tail appended

Compared with L4I, L4Y is lower in protein stability index: 3.56 for the first, 3.16 for the second.

First: L4A
Second: L4M
The protein stability index of the first is higher: 4.1 for the first, 3.81 for the second.

Compared with L4S, D2W is lower in protein stability index: 4.6 for the first, 2.3 for the second.

Compared with D2H, D2E is higher in protein stability index: 2.17 for the first, 4.27 for the second.

First: D2P
Second: V18F
The protein stability index of the first is higher: 3.11 for the first, 2.97 for the second.

Going from V18Y to V18N, the protein stability index rises from 3.7 to 3.89.

Going from V18C to V18G, the protein stability index rises from 3.66 to 4.05.

Compared with K23F, H9Q is higher in protein stability index: 2.67 for the first, 3.43 for the second.

Compared with H9L, H9S is higher in protein stability index: 2.86 for the first, 3.44 for the second.

First: H9G
Second: T13Y
The protein stability index of the first is higher: 4 for the first, 2.92 for the second.

Going from T13F to T13L, the protein stability index rises from 2.65 to 3.24.

Going from Y11F to Y11V, the protein stability index rises from 3.19 to 4.49.

First: Y11D
Second: F21D
The protein stability index of the first is higher: 4.64 for the first, 4.62 for the second.

Going from F21N to F21E, the protein stability index rises from 4.15 to 4.18.

Compared with H15I, H15A is higher in protein stability index: 3.55 for the first, 3.86 for the second.

Going from H15Q to H15S, the protein stability index rises from 3.96 to 4.13.

First: H15C
Second: H15E
The protein stability index of the first is lower: 3.89 for the first, 4.36 for the second.

Compared with A3P, A3T is lower in protein stability index: 3.7 for the first, 3.56 for the second.

First: A3M
Second: H10I
The protein stability index of the first is higher: 3.56 for the first, 2.53 for the second.

Going from H10Y to H10D, the protein stability index rises from 3.22 to 3.85.

Going from H10F to H10M, the protein stability index falls from 2.92 to 2.65.

Compared with R24G, R24K is higher in protein stability index: 4.01 for the first, 4.25 for the second.

Compared with R24I, R24H is higher in protein stability index: 3.08 for the first, 3.79 for the second.

Compared with R24W, F1R is higher in protein stability index: 2.95 for the first, 5.08 for the second.

Compared with F1G, F1Y is lower in protein stability index: 3.74 for the first, 3.59 for the second.

Compared with N17K, N17M is higher in protein stability index: 3.22 for the first, 3.54 for the second.

Compared with N17S, N17C is lower in protein stability index: 3.98 for the first, 2.5 for the second.

Compared with N17E, H12T is lower in protein stability index: 3.96 for the first, 3.29 for the second.

First: H12K
Second: H12I
The protein stability index of the first is higher: 2.58 for the first, 2.16 for the second.

First: H12R
Second: H12E
The protein stability index of the first is higher: 3.36 for the first, 2.95 for the second.

First: H12V
Second: E8G
The protein stability index of the first is lower: 3.27 for the first, 3.55 for the second.

Compared with E8S, E8F is lower in protein stability index: 3.35 for the first, 2.57 for the second.

Going from E8I to C19M, the protein stability index rises from 2.51 to 2.63.

Compared with C19Y, C19G is higher in protein stability index: 2.2 for the first, 2.9 for the second.

Going from C19P to C19W, the protein stability index falls from 3.1 to 1.92.

First: C19V
Second: D6T
The protein stability index of the first is lower: 2.41 for the first, 3.27 for the second.

Going from D6I to D6N, the protein stability index rises from 3.51 to 3.91.

Going from D6Y to D6C, the protein stability index rises from 2.59 to 4.28.

Going from D6L to D6A, the protein stability index falls from 4.68 to 3.54.

Compared with L14K, L14W is lower in protein stability index: 3.54 for the first, 3.17 for the second.

First: L14A
Second: L14M
The protein stability index of the first is lower: 3.98 for the first, 3.99 for the second.

Going from D5N to G16T, the protein stability index falls from 3.98 to 3.47.

Going from G16N to G16D, the protein stability index rises from 3.72 to 3.87.

First: G16F
Second: G16S
The protein stability index of the first is lower: 2.9 for the first, 3.37 for the second.

Compared with C22D, C22I is lower in protein stability index: 3.29 for the first, 2.26 for the second.

Compared with C22Q, C22H is lower in protein stability index: 3.15 for the first, 2.6 for the second.

Going from C22P to S20V, the protein stability index rises from 3 to 3.64.

Compared with S20H, Y7T is higher in protein stability index: 3.56 for the first, 4.16 for the second.

Going from Y7D to Y7W, the protein stability index falls from 4.22 to 3.71.
